Assay results: patent US6767538B2, “Recombinant antibacterial group IIA phospholipase A2 and methods of use thereof” (New York University, priority 1999, dated 2004)

Assays:
S. aureus RN450 = assay: Bactericidal activity toward S. aureus RN450 in RPMI-1640 medium; assay type: cell-based, Staphylococcus aureus; details: FIG. 4, 10^6/ml, 1-500 ng/ml, 60 minutes
Procedure: The bactericidal activity of wild-type human and recombinant mutant human and rabbit Group IIA PLA2s against Staphylococcus aureus 52A (10^6 per ml)was determined. S. aureus was incubated with 0.01-100 nM of each Group IIA PLA2 and incubated at 37° C. for 2 hours in RPMI-1640 medium containing 10 mM HEPES, pH 7.4 and 1% (w/v) albumin. After incubation, bacterial viability was determined by measuring the colony forming ability of the bacteria in trypticase soy agar. Bacterial colonies were enumerated after 18-24 hours at 37° C. The results are expressed as the percentage of the colony forming units (CFU) of the original bacterial inoculum (i.e. at T=0).
S. aureus RN450 (10^6/ml) was incubated with 1-500 ng/ml of each Group IIA PLA2 at 37° C. for 60 minutes in RPMI-1640 medium containing 10 mM HEPES, pH 7.4 and 1% (w/v) albumin. Bacterial viability was determined as in Example 3.

[1] = tested on: S. aureus RN450 and two clinical isolates, strains 5A (MRSA) and 18; assay: Bactericidal activity toward S. aureus RN450 and clinical isolates 5A and 18 in 70% pooled human sera; assay type: cell-based, Staphylococcus aureus; details: FIGS. 4 and 5; each of several strains; laboratory medium and 70% human sera, 90 minutes
Procedure: S. aureus RN450 and two clinical isolates, strains 5A (MRSA) and 18 (10^7/ml were incubated with 1-500 ng/ml of each Group IIA PLA2 at 37° C. for 90 minutes in 70% (v/v) pooled human sera diluted in Hanks' balanced salts solution and buffered with 10 mM HEPES, pH7.4.

S. aureus = assay: Antibacterial activity by colony-forming ability of susceptible bacteria; assay type: cell-based, Staphylococcus aureus
Procedure: According to the present invention, the mutant human Group IIA PLA2 of the present invention is characterized by bactericidal activity against gram positive bacteria, such as S. aureus (see Example 3). Antibacterial activity of mutant human Group IIA PLA2 may be quantified by measuring the colony-forming ability of susceptible bacteria that have been incubated with or without increasing amounts of mutant human Group IIA PLA2. Typically, a suspension of 10^6 bacteria/ml (e.g., S. aureus) is exposed to 1-500 ng/ml of mutant human Group IIA PLA2 for 60-90 minutes at 37° C., after which the cells are mixed with molten agar and plated. After overnight growth, bacterial colonies are compared between mutant Group IIA PLA2-treated and untreated cultures.

[2] = tested on: Reynolds strain of Staphylococcus aureus; assay: Efficacy of administered mutant PLA2 against S. aureus infection in vivo (i.p. infection in mice); set-up: species or system CD/1 mice
Procedure: Bacteria: Reynolds strain of Staphylococcus aureus (encapsulated; grown overnight on Columbia agar to maximize encapsulation as in experiments shown in Example 6).
Administration of bacteria: 2×10^7/ml in 0.2 ml of sterile RPMI supplemented with 10 mM HEPES (pH 7.4) and 1% bovine serum albumin. Intraperitoneal (i.p.) inoculation.
Adminstration of PLA2: 15 μg/0.2 ml of above medium i.p. approx. 10-15 min after inoculation of bacteria. Control animals received medium alone. Enzyme administered was Mutant [G72K.T103K] Group IIA PLA 2.
a) @ 30, 60, 120, and 240 min after infection, blood samples taken from tail vein from each of 4 animals in control and PLA2-treated groups. There were a total of 16 animals in each group; each animal was bled only once in this time period. Levels of bacteremia were assessed by measurement of bacterial CFU in blood.
b) @ 1 day after infection, 8 animals from each group were sacrificed. Blood was collected again to measure bacteremia and the peritoneal cavity was washed and inspected to look macroscopically for abscesses (none seen) and measure intraperitoneal bacteria by assay of CFU.
c) @ 6 days after infection, the remaining 8 animals from each group were sacrificed and infection in blood and peritoneal cavity was measured as above (still no abscesses seen). This animal model produces local and disseminated infection in control animals that is eventually self-limiting. The level of metastatic infection is greatest at approx. 6 days. In addition, kidneys were excised, weighed (no significant difference between animals within and between treatment groups) and homogenized to facilitate assay of bacterial CFU within infected kidney (i.e. representing metastatic infection).

Staphylococcus aureus = details: 100 ng/ml in biological fluids; 10^6 S. aureus cells/ml, incl. multi-drug resistant clinical isolates; cited from earlier work

B1: mutant human Group IIA PLA2: recombinant double mutant G72K.T103K human Group IIA phospholipase A2, protein SEQ. ID. NO. 2, expressed in E. coli (protein)
chain: NLVNFHRLIKLTTGKEAALSYGFYGCHCGVGGRGSPKDATDRCCVTHDCCYKRLEKRGCGTKFLSYKFSNSKSRITCAKQDSCRSQLCECDKAAATCFARNKKTYNKKYQYYSNKHCRGSTPRC
antibacterial activity compared with wild-type human Group IIA PLA2 (S. aureus RN450): increased antibacterial activity
bactericidal activity compared with WT rabbit Group IIA PLA2 (S. aureus RN450): nearly equivalent
activity compared with wild-type human Group IIA PLA2 [1]: significantly more active
activity compared with wild-type rabbit enzyme [1]: essentially as active
antibacterial activity relative to human WT homologue (S. aureus): 10 ×
abscesses seen ([2]; 6 days after infection, controls two of 16): none were seen
treatment of S. aureus infection in vivo ([2]; Example 7): effective
S. aureus bacteremia (CFU in blood) ([2]; FIG. 10, 15 μg i.p., 30, 60, 120, 240 min after infection): reduces
metastatic kidney infection caused by S. aureus (CFU in kidney) ([2]; FIG. 11, 15 μg i.p., 6 days after infection): reduces

B2: wild-type human Group IIA PLA2: wild-type human Group IIA 14 kDa phospholipase A2, comparator enzyme (protein, UniProt P14555 21-144, looked up)
Phospholipase A2, membrane …: NLVNFHRMIKLTTGKEAALSYGFYGCHCGVGGRGSPKDATDRCCVTHDCCYKRLEKRGCGTKFLSYKFSNSGSRITCAKQDSCRSQLCECDKAAATCFARNKTTYNKKYQYYSNKHCRGSTPRC
S. aureus cells killed (Staphylococcus aureus): greater than 99%
